Series [1] deals with T1, TCF-1 C200 (HMG domain) (Mus musculus, UniProt Q00417 Q00417:188-388). The experiment in a line: competition; excess unlabelled RNA did not compete with #10. To be noted: tags: GST fusion, pGEX 4T-1.
The target in series [2] is T1, TCF-1 C200 (HMG domain). Description: competition; excess unlabelled RNA did not compete with #10; text partly contradictory. Conditions: tags: GST fusion, pGEX 4T-1.
Series [3] deals with T1, TCF-1 C200 (HMG domain). Description: EMSA. Conditions: tags: GST fusion, pGEX 4T-1; label: 32P 5'-end.
Series [4] concerns the target TCF-1 (full length) (Mus musculus, UniProt Q00417 Q00417:5-388). Description: EMSA; specificity control. Conditions: tags: GST fusion, pGEX 4T-1; label: 32P (radiolabelled).
For series [5], the target named is HuR (UniProt Q15717 Q15717:1-326). Description: EMSA; specificity control. Conditions: label: 32P (radiolabelled).
Series [6] has as its target GST (UniProt P08515 P08515:1-218). The experiment in a line: EMSA; specificity control. Conditions: chain copies: 2; label: 32P (radiolabelled).
The target in series [7] is GST-β-catenin, full length (UniProt P35222 P35222:1-781). The experiment in a line: EMSA; stated as binding affinity for full length β-catenin. Conditions: tags: GST fusion, E. coli; label: 32P (radiolabelled). As for the experimental part:
After 8 cycles of SELEX selection, the selected sequences were digested with EcoRI and BamHI, followed by cloning into pUC19 to prepare pUC19-aptamer. To test for RNA binding, the RNA was radiolabeled as described previously (Kim & Jeong, Biochem. Biophys. Res. Commun 320:1181-1186, 2004), incubated with GST-β catenin and assayed by GST pull-down (Kim & Jeong, Biochem. Biophys. Res. Commun 320:1181-1186, 2004) or RNA-EMSA (RNA-Electrophoretic Mobility-Shift Assay) (Kim & Jeong, Biochem. Biophys. Res. Commun 320:1181-1186, 2004).

T1 sequence (Q00417 188-388, one chain of several): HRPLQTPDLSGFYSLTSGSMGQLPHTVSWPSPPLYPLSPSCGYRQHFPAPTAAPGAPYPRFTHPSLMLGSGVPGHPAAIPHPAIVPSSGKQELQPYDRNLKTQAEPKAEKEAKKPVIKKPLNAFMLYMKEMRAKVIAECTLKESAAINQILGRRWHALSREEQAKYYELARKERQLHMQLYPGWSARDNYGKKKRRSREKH
TCF-1 (full length), sequence (Q00417 5-388, one chain of several): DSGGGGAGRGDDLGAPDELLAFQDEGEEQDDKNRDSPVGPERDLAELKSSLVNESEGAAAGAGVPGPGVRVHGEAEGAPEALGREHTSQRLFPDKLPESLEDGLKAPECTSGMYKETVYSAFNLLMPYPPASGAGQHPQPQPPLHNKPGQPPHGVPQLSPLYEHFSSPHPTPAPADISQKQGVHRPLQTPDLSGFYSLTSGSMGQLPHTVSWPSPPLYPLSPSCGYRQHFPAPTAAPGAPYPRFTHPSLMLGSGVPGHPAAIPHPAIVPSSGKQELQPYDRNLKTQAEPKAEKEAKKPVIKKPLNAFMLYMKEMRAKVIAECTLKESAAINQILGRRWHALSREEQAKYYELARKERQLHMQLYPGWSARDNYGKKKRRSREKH
GST-β-catenin, full length, sequence (P35222 whole entry, the tested form may be a part, one chain of several): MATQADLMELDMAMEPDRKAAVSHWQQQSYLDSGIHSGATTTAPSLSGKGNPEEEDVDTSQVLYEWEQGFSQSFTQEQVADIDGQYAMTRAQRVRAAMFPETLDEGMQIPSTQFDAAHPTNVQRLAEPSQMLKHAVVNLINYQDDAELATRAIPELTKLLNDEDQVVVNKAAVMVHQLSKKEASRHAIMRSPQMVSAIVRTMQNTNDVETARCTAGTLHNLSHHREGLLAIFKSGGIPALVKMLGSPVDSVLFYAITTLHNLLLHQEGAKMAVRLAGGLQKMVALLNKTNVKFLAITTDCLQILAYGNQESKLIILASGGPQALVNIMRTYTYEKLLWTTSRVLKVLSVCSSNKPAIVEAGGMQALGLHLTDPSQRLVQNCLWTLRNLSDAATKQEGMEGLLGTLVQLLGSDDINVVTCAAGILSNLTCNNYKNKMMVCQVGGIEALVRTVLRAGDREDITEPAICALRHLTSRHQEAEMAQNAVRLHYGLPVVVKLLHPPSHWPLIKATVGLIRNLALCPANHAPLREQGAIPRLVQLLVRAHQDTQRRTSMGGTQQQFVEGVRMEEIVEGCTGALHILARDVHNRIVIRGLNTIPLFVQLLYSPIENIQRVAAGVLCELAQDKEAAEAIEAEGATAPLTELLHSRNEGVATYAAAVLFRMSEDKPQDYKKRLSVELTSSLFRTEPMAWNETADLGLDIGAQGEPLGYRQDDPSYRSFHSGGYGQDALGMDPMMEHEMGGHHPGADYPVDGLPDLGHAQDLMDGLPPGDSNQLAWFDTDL
GST, sequence (P08515 whole entry, the tested form may be a part, one chain of several): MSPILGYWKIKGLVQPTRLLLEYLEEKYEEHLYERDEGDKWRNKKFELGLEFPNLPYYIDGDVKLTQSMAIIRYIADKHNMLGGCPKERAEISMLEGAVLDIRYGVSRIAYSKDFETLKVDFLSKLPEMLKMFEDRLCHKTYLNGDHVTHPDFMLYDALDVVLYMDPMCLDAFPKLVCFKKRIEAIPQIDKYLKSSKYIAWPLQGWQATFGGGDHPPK
HuR, sequence (Q15717 whole entry, one chain of several): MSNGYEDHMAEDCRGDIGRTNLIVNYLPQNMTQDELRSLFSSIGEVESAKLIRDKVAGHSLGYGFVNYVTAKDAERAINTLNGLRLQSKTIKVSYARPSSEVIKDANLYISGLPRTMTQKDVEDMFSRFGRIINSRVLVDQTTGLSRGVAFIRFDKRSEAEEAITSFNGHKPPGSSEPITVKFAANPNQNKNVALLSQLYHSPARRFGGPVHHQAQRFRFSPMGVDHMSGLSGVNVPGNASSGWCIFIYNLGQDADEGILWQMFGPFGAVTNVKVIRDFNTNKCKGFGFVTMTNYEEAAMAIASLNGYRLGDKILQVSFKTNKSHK

B1: RNA #9 (ssRNA)
RNA: UGCUGACAAUUCUCGUGCCUCUCCAUGGUCUGCGGCUGAGAAGGUUCGCCAAGUUGUGGGCCGGGGUGC
Regarding B1, the binding result in series [1] is “no binding”.

B2: RNA #20 (ssRNA)
RNA: UUCCCGCGGUGGAAAGCGUUGGGUAGCGGCUCCGAUGGAGAGUGGUGCGCCUUGCCUGCUGGCCUUG
B2: the binding result in series [2] is given as “no binding”.

B3: TRE (TCF responsive element) (dsDNA)
DNA 1: GGTAAGATCAAAGGG
DNA 2: CCCTTTGATCTTACC
On to B3, for which, in series [3], the binding result is on record as “binds”.

B4: β-catenin RNA aptamer (ssRNA)
RNA: GGACGCGUGGUACCAGGCCGAUCUAUGGACGCUAUAGGCACACCGGAUACUUUAACGAUUGGCUAAGCUUCCGCGGGGAUC
For B4, the binding result in series [4], in series [5] and in series [6] was “no binding” throughout. Binding in series [7] was characterised by a dissociation constant (Kd) of 5 nM.
